Legend:
[1] = target: T1, mouse common cytokine receptor γ-chain (IL-2Rγ) (mouse, UniProt P34902 23-263, limits assumed); test: P.E. binding ELISA
T1 construct: Recombinant mouse IL-2Rγ protein; also called mo IL-2R; mouse IL-2R gamma
T1 sequence (looked up): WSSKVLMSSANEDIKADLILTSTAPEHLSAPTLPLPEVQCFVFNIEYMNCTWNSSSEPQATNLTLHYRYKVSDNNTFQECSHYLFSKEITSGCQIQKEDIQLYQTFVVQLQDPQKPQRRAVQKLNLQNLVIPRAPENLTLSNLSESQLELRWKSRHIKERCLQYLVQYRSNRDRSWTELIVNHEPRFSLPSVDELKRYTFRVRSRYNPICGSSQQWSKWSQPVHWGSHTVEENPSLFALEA
Experimental: (§1) In a binding ELISA, human or mouse IL-2Rα, IL-2Rβ and IL-2Rγ proteins were coated directly on maxisorp microtiter plates overnight at 4° C. Free binding sites were blocked using 4% Marvel in PBS for 1 hour. Next, 1:5 dilution of P.E. in 1% Marvel/PBS were added to wells and incubated for 1 hour. […] Binding specificity was determined based on O.D. at 450 nm values compared to negative controls.

[2] = target: T2, human common cytokine receptor γ-chain (IL-2Rγ) (human, UniProt P31785 23-262, limits assumed); test: P.E. binding ELISA
T2 construct: Recombinant human IL-2Rγ protein, coated (ELISA) or amine-coupled to a CM5 chip (SPR); also called hu IL-2R; CD132
T2 sequence: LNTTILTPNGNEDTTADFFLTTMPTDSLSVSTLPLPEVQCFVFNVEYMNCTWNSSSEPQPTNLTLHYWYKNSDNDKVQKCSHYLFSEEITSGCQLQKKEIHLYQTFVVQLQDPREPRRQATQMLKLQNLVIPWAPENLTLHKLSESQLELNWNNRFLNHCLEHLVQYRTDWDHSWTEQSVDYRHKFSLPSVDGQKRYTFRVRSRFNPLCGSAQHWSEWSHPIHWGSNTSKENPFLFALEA
Experimental: as §1

[3] = target: T1, mouse common cytokine receptor γ-chain …; test: P.E. off-rate SPR
Experimental: (§2) SPR was performed to determine dissociation rates using Biacore 3000 instrument (GE Healthcare). Briefly, human and mouse IL-2R proteins were immobilized on carboxylmethyl dextran sensor chip (CM5) at approximately 2500 RUs using amine coupling in acetate buffer (GE Healthcare). The VHH-containing P.E. were loaded with a flow rate of 30 uL/min and the off-rates were measured over a 120s period.

[4] = target: T2, human common cytokine receptor γ-chain …; test: P.E. off-rate SPR
Experimental: as §2

Binder	PE binding ELISA OD [1]	PE binding ELISA OD [2]	koff [3]	koff [4]
FJ1427_P035MP07F01 (VHH, tested as periplasmic extract; also called Clone nr) VHH: QVQLVESGGGLVQAGGSLRLSCAASGRTLSRYAMGWFRQAPGKEREFVTANSWGGDTYYADSVQGRFTFSRDNAKNTVYLQMNSLQPEDTAVYYCAAAPTSFATTAYSSSNSYAYWGQGTQVTVSS	0.047 OD450 nm	0.556 OD450 nm	0.0855 s⁻¹	0.00297 s⁻¹
FJ1427_P035MP07H09 (VHH, tested as periplasmic extract; also called Clone nr) VHH: QVQLVESGGGLVQAGGSLRLSCAASGRTLSRYAMGWFRQAPGKEREFVAANSWGGDTYYTDSVEGRFTFSRDNAKNAVYLQMNSLQPEDTAVYYCAAAPTSFATTAYSSSNSYTYWGQGTQVTVSS	–	1.11 OD450 nm	–	0.00346 s⁻¹
FJ1427_P035MP07A10 (VHH, tested as periplasmic extract; also called Clone nr) VHH: QVQLVESGGGLVQAGGSLRLSCAASGRTLSRYAMGWFRQAPGSEREFVAASSWGGDTFYADSVEGRFTFSRDNAKNAVYLQMNSLQPEDTAAYYCAAAPTSFPTTAYSSSNSYAYWGQGTQVTVSS	–	0.759 OD450 nm	–	0.00242 s⁻¹
FJ1427_P035MP07A04 (VHH, tested as periplasmic extract; also called Clone nr) VHH: QVQLVESGGGLVQAGGSLRLSCAASGRTLSRYAMGWFRQGPGKEREFVAADSWGGDTYYDDSVEGRFTFSRDITKNAVYLQMNSLQPEDTAVYYCAAAPTSFATTAYSSSNSYAYWGQGTQVTVSS	–	0.507 OD450 nm	–	0.00126 s⁻¹
FJ1427_P035MP07G09 (VHH, tested as periplasmic extract; also called Clone nr; 647) VHH: QVQLQESGGGLVQAGGSLRLSCAASGRTLSRVAMGWFRQAPGKEREFVAADSWGGDTFYADSVEGRFTFSRDNAKNAVYLQMNSLQPEDTAVYFCAGAPASFATTAYSSSNSYSYWGQGTQVTVSS	–	1.14 OD450 nm	–	0.0024 s⁻¹
FJ1427_P035MP07D04 (VHH, tested as periplasmic extract; also called Clone nr) VHH: EVQLVESGGGLVQAGGSLRLSCAASGRTLSRYAMGWFRQGPGKEREFVAADSWGGDTYYDDSVEGRFTFSRDITKNAVYLQMNSLQPEDTAVYYCAAAPTSFATTAYSSSNSYAYWGQGTQVTVSS	–	0.792 OD450 nm	–	0.00243 s⁻¹
FJ1427_P035MP07A06 (VHH, tested as periplasmic extract; also called Clone nr) VHH: QVQLVESGGGLVQPGGSLRLSCAASGRTLSRYAMGWFRQAPGKEREFVTANSWGGDTYYADSVQGRFTFSRDNAKNTVYLQMNSLQPEDTAVYYCAAAPTSFATTAYSSSNSYAYWGQGTQVTVSS	0.047 OD450 nm	1.12 OD450 nm	0.109 s⁻¹	0.00273 s⁻¹
FJ1427_P035MP07A02 (VHH, tested as periplasmic extract; also called Clone nr) VHH: QVQLVESGGGLVQAGGSLRLSCAASGRALSRLAMGWFRQAPGKEREFVVASSWGDDTFYADSVKGRFTFSRDNAKNTVYLQMNSLQPGDTAVYYCAAAPTSFATTAYSSSNSYAYWGQGTQVTASS	0.063 OD450 nm	0.829 OD450 nm	0.0116 s⁻¹	0.00176 s⁻¹
FJ1427_P035MP07C04 (VHH, tested as periplasmic extract; also called Clone nr) VHH: QVQLVESGGGVVQAGGSLRLSCAASGRTLSRYAMGWFRQAPGKEREFVTANSWGGDTYYADSVQGRFTFSRDNAKNTVYLQMNSLQPEDTAVYYCAAAPTSFATTAYSSSNSYAYWGQGTQVTVSS	–	0.406 OD450 nm	–	0.00267 s⁻¹
FJ1427_P035MP07A09 (VHH, tested as periplasmic extract; also called Clone nr) VHH: QVQLVESGGGLVQAGGSLRLSCAASGRALSRLAMGWFRQAPGKEREFVVASSWGDDTFYADSVKGRFTFSRDNAKNTVYLQMNSLQPGDTAVYYCAAAPTSFATTAYSSSNSYAYWGQGTQVTVSS	0.055 OD450 nm	0.518 OD450 nm	0.0119 s⁻¹	0.00161 s⁻¹
FJ1427_P035MP07B01 (VHH, tested as periplasmic extract; also called Clone nr) VHH: QVQLVESGGGLVQAGGSLRLSCAASGRTLSRYAMGWFRQAPGKEREFVTANSWGGDTYYADSVQGRFTFTRDNAKNTVYLQMNSLQPEDTAVYYCAAAPTSFATTAYSSSNSYAYWGQGTQVTVSS	–	0.518 OD450 nm	–	0.00235 s⁻¹
FJ1427_P035MP07A05 (VHH, tested as periplasmic extract; also called Clone nr) VHH: EVQLVESGGGLVQAGGSLRLSCAASGRTLSRYAMGWFRQAPGKEREFVTANSWGGDTYYADSVQGRFTFSRDNAKNTVYLQMNSLQPEDTAVYYCAAAPTSFATTAYSSSNSYAYWGQGTQVTVSS	0.046 OD450 nm	0.973 OD450 nm	0.127 s⁻¹	0.00323 s⁻¹
FJ1427_P035MP07F08 (VHH, tested as periplasmic extract; also called Clone nr; 638) VHH: QVQLVESGGGLVQAGGSLRLSCAASGRTLSRDAMGWFRQAPGKEREFVAADSWGGDTFYADSVEGRFTFSRDNAKNAVYLQMNSLQPEDTAVYYCAGAPTSFATTAYSSSNSYRYWGQGTQVTVSS	–	1.24 OD450 nm	–	0.00185 s⁻¹
FJ1427_P035MP07A01 (VHH, tested as periplasmic extract; also called Clone nr) VHH: EVQLVESGGGLVQAGDSLRLSCAASGRTLSRYAMGWFRQAPGKEREFVTANSWGGDTYYADSVQGRFTFSRDNAKNTVYLQMNSLQPEDTAVYYCAAAPTSFATTAYSSSNSYAYWGQGTQVTVSS	–	0.478 OD450 nm	–	0.00151 s⁻¹
FJ1427_P035MP07E07 (VHH, tested as periplasmic extract; also called Clone nr) VHH: EVQLVESGGGLVQAGGSLRLSCAASGRTLSRYAMGWFRQAPGSEREFVAASSWGGDTFYADSVEGRFTFSRDNAKNAVYLQMNSLQPEDTAAYYCAAAPTSFPTTAYSSSNSYAYWGQGTQVTVSS	–	0.359 OD450 nm	–	0.00225 s⁻¹
FJ1427_P035MP07F03 (VHH, tested as periplasmic extract; also called Clone nr) VHH: QVQLVESGGGLVQTGGSLRLSCAASGRTLSRYAMGWFRQAPGKEREFVTANSWGGDTYYADSVQGRFTFSRDNAKNTVYLQMNSLQPEDTAVYYCAAAPTSFATTAYSSSNSYAYWGQGTQVTVSS	–	0.497 OD450 nm	–	0.00321 s⁻¹
FJ1427_P035MP07B02 (VHH, tested as periplasmic extract; also called Clone nr) VHH: EVQLVESGGGLVQAGGSLRLSCAASGRALSRLAMGWFRQAPGKEREFVVASSWGDDTFYADSVKGRFTFSRDNAKNTVYLQMNSLQPGDTAVYYCAAAPTSFATTAYSSSNSYAYWGQGTQVTVSS	0.061 OD450 nm	1.32 OD450 nm	0.0151 s⁻¹	0.00232 s⁻¹
FJ1427_P035MP07A03 (VHH, tested as periplasmic extract; also called Clone nr) VHH: EVQLVESGGGLVQAGGSLRLSCAASGRTLSRYAMGWFRQAPGKEREYVAIDSWGGDTFYADSVEGRFTFSRDNAKNEVYLQMNSLQPEDTAVYYCAGAPTSFATTAYSSSNSYRYWGQGTQVTVSS	0.869 OD450 nm	1.69 OD450 nm	0.00795 s⁻¹	0.00174 s⁻¹
FJ1427_P035MP04F12 (VHH, tested as periplasmic extract; also called Clone nr) VHH: QVQLQESGGGWVQVGESLRLSCVPSGRTFVSGIMGWFRQAPGKEREFVARIILNNNSTRYTDSVKGRFTISRDSAKNTMYLQMNTLRPEDTAVYYCAARDRYGSGNSLSPSAYDYWGQGTQVTVSS	–	2.02 OD450 nm	–	0.00714 s⁻¹
FJ1427_P035MP07C02 (VHH, tested as periplasmic extract; also called Clone nr; 587) VHH: EVQLVESGGGWVQVGESLRLSCAPSGRTFVSGIMGWFRQTPGKEREFVARIILNNNSTRYTDSVKGRFTISRDSAKNTMYLQMNTLRPEDTAVYYCAARDRYGSGNSLSPSAYDYWGQGTQVTVSS	–	0.48 OD450 nm	–	0.0186 s⁻¹

Reference: patent US20240409645A1 (DUALYX, published 2024)
